# Reference: patent US7449553B2, “Antibody that binds ceramidase” (Takara Bio Inc., priority 1999, dated 2008)
# “Also recorded” adds a separate entry of the source.
# B1: ceramidase: isolated and purified neutral/alkaline ceramidase derived from a mouse liver, mature form SEQ ID NO: 14 (protein, listed as Mus sp.)
# chain: FSGYYIGVGRADCTGQVSDINLMGYGKNGQNARGLLTRLFSRAFILADPDGSNRMAFVSVELCMISQRLRLEVLKRLESKYGSLYRRDNVILSAIHTHSGPAGFFQYTLYILASEGFSNRTFQYIVSGIMKSIDIAHTNLKPGKIFINKGNVANVQINRSPSSYLLNPQSERARYSSNTDKEMLVLKLVDLNGEDLGLISWFAIHPVSMNNSNHFVNSDNMGYAAYLFEQEKNKGYLPGQGPFVAGFASSNLGDVSPNILGPHCVNTGESCDNDKSTCPNGGPSMCMASGPGQDMFESTHIIGRIIYQKAKELYASASQEVTGPVLAAHQWVNMTDVSVQLNATHTVKTCKPALGYSFAAGTIDGVSGLNITQGTTEGDPFWDTLRDQLLGKPSEEIVECQKPKPILLHSGELTIPHPWQPDIVDVQIVTVGSLAIAAIPGELTTMSGRRFREAIKKEFALYGMKDMTVVIAGLSNVYTHYITTYEEYQAQRYEAASTIYGPHTLSAYIQLFRDLAKAIATDTVANMSSGPEPPFFKNLIASLIPNIADRAPIGKHFGDVLQPAKPEYRVGEVVEVIFVGANPKNSAENQTHQTFLTVEKYEDSVADWQIMYNDASWETRFYWHKGILGLSNATIYWHIPDTAYPGIYRIRYFGHNRKQELLKPAVILAFEGISSPFEVVTT
# Assay: Temperature stability of the ceramidase
# Format: physicochemical
# Conditions: 20 mM Tris-HCl pH 7.5, 0.1% polidocanol (Lubrol PX)
# Protocol: The activity of the ceramidase can be determined in accordance with the method described, for instance, in J. Biol. Chem., 275, 3462-3468 (2000). Concretely, a reaction mixture prepared by dissolving 550 pmol of 12-((N-(7-nitrobenz-2-oxa-1,3-diazol-4-yl)amino)dodecanoyl)sphingosine, hereinafter referred to as C12-NBD-ceramide [Anal. Biochem., 263, 183-188 (1998)], 1.0% (W/V) sodium cholate and a suitable amount of an enzyme (ceramidase) in 20 μl of 25 mM Tris-hydrochloric acid buffer (pH 7.5) is incubated at 37° C. for 30 minutes. The reaction mixture is incubated in a boiling water bath for 5 minutes, thereby stopping the reaction. The resulting reaction mixture is further evaporated to dryness under reduced pressure. The dried solid is dissolved in chloroform/methanol=2/1 (V/V), and developed by silica gel thin layer chromatography (developing solvent: chloroform/methanol/25% aqueous ammonia=90/20/0.5 (V/V/V)). Thereafter, the 12-(N-7-nitrobenz-2-oxa-1,3-diazol-4-yl)amino)dodecanoyl acid, hereinafter referred to as C12-NBD-fatty acid generated by the above-mentioned reaction is quantified by using CS-9300 Chromatoscanner (manufactured by Shimadzu Corporation) at an excitation wavelength of 475 nm and a fluorescent wavelength 525 nm. […]
molecule,measurement,value
B1,Activity after treatment at 37° C. for 24 hours,reduced activity not being observed; also recorded: does not show the reduced activity
same,"Activity after treatment at 60° C. for 1 hour, relative to activity before the treatment",about 30%
